Source: patent US20190185537A1 (AstraZeneca / MedImmune, published 2019)
Numbered stars: 1 amine (or outer) side, 2 acyl side, 3 side chain; on linkers, the order of the positions; unused ones are H or OH. Side chains are listed from the residue outwards. Ends that are not written are not given here. * marks the point of attachment. γGlu = O=C(O)[C@H](CCC(=O)[*:2])N[*:1]; Palmitoyl = CCCCCCCCCCCCCCCC(=O)*

What was measured:
Experiment in all cases: cell-based or functional assay
[1] = target: T1, human glucose-dependent insulinotropic peptide (gastric inhibitory polypeptide) receptor (human) (UniProt P48546)
T1 sequence (looked up): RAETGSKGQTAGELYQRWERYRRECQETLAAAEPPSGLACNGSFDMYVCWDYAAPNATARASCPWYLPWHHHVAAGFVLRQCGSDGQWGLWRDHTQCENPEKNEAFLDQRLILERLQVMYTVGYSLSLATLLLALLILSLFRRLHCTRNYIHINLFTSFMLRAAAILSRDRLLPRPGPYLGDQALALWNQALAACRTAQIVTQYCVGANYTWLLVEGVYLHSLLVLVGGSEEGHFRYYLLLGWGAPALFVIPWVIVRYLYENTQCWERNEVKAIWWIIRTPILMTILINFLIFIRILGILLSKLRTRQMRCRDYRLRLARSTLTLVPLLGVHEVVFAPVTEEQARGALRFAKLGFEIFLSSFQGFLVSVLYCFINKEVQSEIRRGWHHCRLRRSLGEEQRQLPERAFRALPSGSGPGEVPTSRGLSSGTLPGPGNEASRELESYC

human GLP-1 receptor = human GLP-1 receptor (human, UniProt P43220 24-463)
Sequence of human GLP-1 receptor (P43220 24-463): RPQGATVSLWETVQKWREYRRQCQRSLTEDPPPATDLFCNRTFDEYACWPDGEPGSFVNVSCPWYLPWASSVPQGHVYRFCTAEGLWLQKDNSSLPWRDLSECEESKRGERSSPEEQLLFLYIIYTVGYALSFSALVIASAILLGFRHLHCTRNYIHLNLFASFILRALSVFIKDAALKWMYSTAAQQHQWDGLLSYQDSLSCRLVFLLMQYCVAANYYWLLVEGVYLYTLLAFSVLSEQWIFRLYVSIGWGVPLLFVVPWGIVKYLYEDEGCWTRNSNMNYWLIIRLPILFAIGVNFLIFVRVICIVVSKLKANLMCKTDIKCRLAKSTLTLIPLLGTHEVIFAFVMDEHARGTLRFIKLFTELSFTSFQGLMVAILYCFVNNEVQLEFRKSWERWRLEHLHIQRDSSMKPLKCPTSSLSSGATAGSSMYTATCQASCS

human glucagon receptor = human glucagon receptor (human, UniProt P47871 26-477)
Sequence of human glucagon receptor (P47871 26-477): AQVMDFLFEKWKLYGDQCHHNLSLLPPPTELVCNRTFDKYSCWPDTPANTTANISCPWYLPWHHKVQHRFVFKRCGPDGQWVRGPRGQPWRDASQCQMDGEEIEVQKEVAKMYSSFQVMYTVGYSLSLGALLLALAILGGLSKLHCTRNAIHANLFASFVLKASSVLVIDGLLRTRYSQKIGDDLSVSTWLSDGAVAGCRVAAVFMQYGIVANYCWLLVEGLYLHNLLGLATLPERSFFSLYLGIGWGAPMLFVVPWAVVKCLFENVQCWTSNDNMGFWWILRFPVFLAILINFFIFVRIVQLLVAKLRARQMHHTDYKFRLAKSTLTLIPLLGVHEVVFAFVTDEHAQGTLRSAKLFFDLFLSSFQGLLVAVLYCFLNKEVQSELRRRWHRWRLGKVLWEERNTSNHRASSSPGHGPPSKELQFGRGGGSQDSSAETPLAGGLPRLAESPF

Binder	cAMP EC50 (assay 1) [1] [nM]	cAMP EC50 (assay 1) (human GLP-1 receptor) [nM]	cAMP EC50 (assay 1) (human glucagon receptor) [nM]
HSQGTFTSDK([γGlu-Palmitoyl])SKYLDSRRAQDFVQWLEAGG-NH2 (N-terminus assumed; SMILES CCCCCCCCCCCCCCCC(=O)N[C@@H](CCC(=O)NCCCC[C@H](NC(=O)[C@H](CC(=O)O)NC(=O)[C@H](CO)NC(=O)[C@@H](NC(=O)[C@H](Cc1ccccc1)NC(=O)[C@@H](NC(=O)CNC(=O)[C@H](CCC(N)=O)NC(=O)[C@H](CO)NC(=O)[C@@H](N)Cc1c[nH]cn1)[C@@H](C)O)[C@@H](C)O)C(=O)N[C@@H](CO)C(=O)N[C@@H](CCCCN)C(=O)N[C@@H](Cc1ccc(O)cc1)C(=O)N[C@@H](CC(C)C)C(=O)N[C@@H](CC(=O)O)C(=O)N[C@@H](CO)C(=O)N[C@@H](CCCNC(=N)N)C(=O)N[C@@H](CCCNC(=N)N)C(=O)N[C@@H](C)C(=O)N[C@@H](CCC(N)=O)C(=O)N[C@@H](CC(=O)O)C(=O)N[C@@H](Cc1ccccc1)C(=O)N[C@H](C(=O)N[C@@H](CCC(N)=O)C(=O)N[C@@H](Cc1c[nH]c2ccccc12)C(=O)N[C@@H](CC(C)C)C(=O)N[C@@H](CCC(=O)O)C(=O)N[C@@H](C)C(=O)NCC(=O)NCC(N)=O)C(C)C)C(=O)O) [g717]	1.48	0.00577	0.000455
HSQGTFTSDK([γGlu-Palmitoyl])SKYLDSERARDFVAWLEAGG-NH2 (N-terminus assumed; SMILES CCCCCCCCCCCCCCCC(=O)N[C@@H](CCC(=O)NCCCC[C@H](NC(=O)[C@H](CC(=O)O)NC(=O)[C@H](CO)NC(=O)[C@@H](NC(=O)[C@H](Cc1ccccc1)NC(=O)[C@@H](NC(=O)CNC(=O)[C@H](CCC(N)=O)NC(=O)[C@H](CO)NC(=O)[C@@H](N)Cc1c[nH]cn1)[C@@H](C)O)[C@@H](C)O)C(=O)N[C@@H](CO)C(=O)N[C@@H](CCCCN)C(=O)N[C@@H](Cc1ccc(O)cc1)C(=O)N[C@@H](CC(C)C)C(=O)N[C@@H](CC(=O)O)C(=O)N[C@@H](CO)C(=O)N[C@@H](CCC(=O)O)C(=O)N[C@@H](CCCNC(=N)N)C(=O)N[C@@H](C)C(=O)N[C@@H](CCCNC(=N)N)C(=O)N[C@@H](CC(=O)O)C(=O)N[C@@H](Cc1ccccc1)C(=O)N[C@H](C(=O)N[C@@H](C)C(=O)N[C@@H](Cc1c[nH]c2ccccc12)C(=O)N[C@@H](CC(C)C)C(=O)N[C@@H](CCC(=O)O)C(=O)N[C@@H](C)C(=O)NCC(=O)NCC(N)=O)C(C)C)C(=O)O) [g798]	1.51	0.00907	0.00051
HSQGTFTSDYSKYK([γGlu-Palmitoyl])DSRRARDFVAWLEAGG-NH2 (N-terminus assumed; SMILES CCCCCCCCCCCCCCCC(=O)N[C@@H](CCC(=O)NCCCC[C@H](NC(=O)[C@H](Cc1ccc(O)cc1)NC(=O)[C@H](CCCCN)NC(=O)[C@H](CO)NC(=O)[C@H](Cc1ccc(O)cc1)NC(=O)[C@H](CC(=O)O)NC(=O)[C@H](CO)NC(=O)[C@@H](NC(=O)[C@H](Cc1ccccc1)NC(=O)[C@@H](NC(=O)CNC(=O)[C@H](CCC(N)=O)NC(=O)[C@H](CO)NC(=O)[C@@H](N)Cc1c[nH]cn1)[C@@H](C)O)[C@@H](C)O)C(=O)N[C@@H](CC(=O)O)C(=O)N[C@@H](CO)C(=O)N[C@@H](CCCNC(=N)N)C(=O)N[C@@H](CCCNC(=N)N)C(=O)N[C@@H](C)C(=O)N[C@@H](CCCNC(=N)N)C(=O)N[C@@H](CC(=O)O)C(=O)N[C@@H](Cc1ccccc1)C(=O)N[C@H](C(=O)N[C@@H](C)C(=O)N[C@@H](Cc1c[nH]c2ccccc12)C(=O)N[C@@H](CC(C)C)C(=O)N[C@@H](CCC(=O)O)C(=O)N[C@@H](C)C(=O)NCC(=O)NCC(N)=O)C(C)C)C(=O)O) [g780]	64	0.012	0.000792
HSQGTFTSDYSKYK([γGlu-Palmitoyl])DSRRAQDFVQWLEAGG-NH2 (N-terminus assumed; SMILES CCCCCCCCCCCCCCCC(=O)N[C@@H](CCC(=O)NCCCC[C@H](NC(=O)[C@H](Cc1ccc(O)cc1)NC(=O)[C@H](CCCCN)NC(=O)[C@H](CO)NC(=O)[C@H](Cc1ccc(O)cc1)NC(=O)[C@H](CC(=O)O)NC(=O)[C@H](CO)NC(=O)[C@@H](NC(=O)[C@H](Cc1ccccc1)NC(=O)[C@@H](NC(=O)CNC(=O)[C@H](CCC(N)=O)NC(=O)[C@H](CO)NC(=O)[C@@H](N)Cc1c[nH]cn1)[C@@H](C)O)[C@@H](C)O)C(=O)N[C@@H](CC(=O)O)C(=O)N[C@@H](CO)C(=O)N[C@@H](CCCNC(=N)N)C(=O)N[C@@H](CCCNC(=N)N)C(=O)N[C@@H](C)C(=O)N[C@@H](CCC(N)=O)C(=O)N[C@@H](CC(=O)O)C(=O)N[C@@H](Cc1ccccc1)C(=O)N[C@H](C(=O)N[C@@H](CCC(N)=O)C(=O)N[C@@H](Cc1c[nH]c2ccccc12)C(=O)N[C@@H](CC(C)C)C(=O)N[C@@H](CCC(=O)O)C(=O)N[C@@H](C)C(=O)NCC(=O)NCC(N)=O)C(C)C)C(=O)O) [g601]	74.1	0.0398	0.000493

More lines, now with the values ahead:

cAMP EC50 (assay 1) [1] [nM]	cAMP EC50 (assay 1) (human GLP-1 receptor) [nM]	cAMP EC50 (assay 1) (human glucagon receptor) [nM]	Binder
84.2	0.0973	0.00948	HSQGTFTSDYSRYLDSK([γGlu-Palmitoyl])RARDFVEWLVAGG-NH2 (N-terminus assumed; SMILES CCCCCCCCCCCCCCCC(=O)N[C@@H](CCC(=O)NCCCC[C@H](NC(=O)[C@H](CO)NC(=O)[C@H](CC(=O)O)NC(=O)[C@H](CC(C)C)NC(=O)[C@H](Cc1ccc(O)cc1)NC(=O)[C@H](CCCNC(=N)N)NC(=O)[C@H](CO)NC(=O)[C@H](Cc1ccc(O)cc1)NC(=O)[C@H](CC(=O)O)NC(=O)[C@H](CO)NC(=O)[C@@H](NC(=O)[C@H](Cc1ccccc1)NC(=O)[C@@H](NC(=O)CNC(=O)[C@H](CCC(N)=O)NC(=O)[C@H](CO)NC(=O)[C@@H](N)Cc1c[nH]cn1)[C@@H](C)O)[C@@H](C)O)C(=O)N[C@@H](CCCNC(=N)N)C(=O)N[C@@H](C)C(=O)N[C@@H](CCCNC(=N)N)C(=O)N[C@@H](CC(=O)O)C(=O)N[C@@H](Cc1ccccc1)C(=O)N[C@H](C(=O)N[C@@H](CCC(=O)O)C(=O)N[C@@H](Cc1c[nH]c2ccccc12)C(=O)N[C@@H](CC(C)C)C(=O)N[C@H](C(=O)N[C@@H](C)C(=O)NCC(=O)NCC(N)=O)C(C)C)C(C)C)C(=O)O) [g823]
41.7	0.0448	0.00704	HSQGTFTSDYSKYLDSK([γGlu-Palmitoyl])RARDFVAWLVAGG-NH2 (N-terminus assumed; SMILES CCCCCCCCCCCCCCCC(=O)N[C@@H](CCC(=O)NCCCC[C@H](NC(=O)[C@H](CO)NC(=O)[C@H](CC(=O)O)NC(=O)[C@H](CC(C)C)NC(=O)[C@H](Cc1ccc(O)cc1)NC(=O)[C@H](CCCCN)NC(=O)[C@H](CO)NC(=O)[C@H](Cc1ccc(O)cc1)NC(=O)[C@H](CC(=O)O)NC(=O)[C@H](CO)NC(=O)[C@@H](NC(=O)[C@H](Cc1ccccc1)NC(=O)[C@@H](NC(=O)CNC(=O)[C@H](CCC(N)=O)NC(=O)[C@H](CO)NC(=O)[C@@H](N)Cc1c[nH]cn1)[C@@H](C)O)[C@@H](C)O)C(=O)N[C@@H](CCCNC(=N)N)C(=O)N[C@@H](C)C(=O)N[C@@H](CCCNC(=N)N)C(=O)N[C@@H](CC(=O)O)C(=O)N[C@@H](Cc1ccccc1)C(=O)N[C@H](C(=O)N[C@@H](C)C(=O)N[C@@H](Cc1c[nH]c2ccccc12)C(=O)N[C@@H](CC(C)C)C(=O)N[C@H](C(=O)N[C@@H](C)C(=O)NCC(=O)NCC(N)=O)C(C)C)C(C)C)C(=O)O) [g867]
102	0.145	0.0053	HSQGTFTSDYSKYLDSERARDFVAWLEAGG-NH2 [g840]
57.4	0.0471	0.00105	HSQGTFTSDYSKYK([γGlu-Palmitoyl])DSRRARDFVEWLEAGG-NH2 (N-terminus assumed; SMILES CCCCCCCCCCCCCCCC(=O)N[C@@H](CCC(=O)NCCCC[C@H](NC(=O)[C@H](Cc1ccc(O)cc1)NC(=O)[C@H](CCCCN)NC(=O)[C@H](CO)NC(=O)[C@H](Cc1ccc(O)cc1)NC(=O)[C@H](CC(=O)O)NC(=O)[C@H](CO)NC(=O)[C@@H](NC(=O)[C@H](Cc1ccccc1)NC(=O)[C@@H](NC(=O)CNC(=O)[C@H](CCC(N)=O)NC(=O)[C@H](CO)NC(=O)[C@@H](N)Cc1c[nH]cn1)[C@@H](C)O)[C@@H](C)O)C(=O)N[C@@H](CC(=O)O)C(=O)N[C@@H](CO)C(=O)N[C@@H](CCCNC(=N)N)C(=O)N[C@@H](CCCNC(=N)N)C(=O)N[C@@H](C)C(=O)N[C@@H](CCCNC(=N)N)C(=O)N[C@@H](CC(=O)O)C(=O)N[C@@H](Cc1ccccc1)C(=O)N[C@H](C(=O)N[C@@H](CCC(=O)O)C(=O)N[C@@H](Cc1c[nH]c2ccccc12)C(=O)N[C@@H](CC(C)C)C(=O)N[C@@H](CCC(=O)O)C(=O)N[C@@H](C)C(=O)NCC(=O)NCC(N)=O)C(C)C)C(=O)O) [g824]
